Data on 9 molecules can be found in PMC10791742 (Nature Communications, 2024).

B1: TPL0039_05_F04 IgG1 (LALA + YTE) (antibody, V domains shown)
VH: QVQLVESGGGVVQPGRSPRLSCAASGFTFSSYGMHWVRQAPGKGLEWVAVISYDGSNKYYADSVKGRFTISRDNSKNTLYLQMNSLRAEDTAVYYCAKDLEYSSSSWGQGTLVTVSS
VL: NFMLTQPHSVSESPGKTVTISCTRSSGSIASNYVQWFQQRPGSSPTTVIYEDDQRPSGVPDRFSGSIDSSSNSASLTISGLKTEDEATYFCQSYDSSTVVFGGGTKVTVL
notes: also called F04(LALA + YTE); copies: 2 + 2
B2: TPL0039_05_E02 Fab (Fab, V domains shown)
VH: QVQLLESGGGLVQPGRSLRLSCAASGFTFSSYGLHWVRQAPGKGLEWVAVISYDGSNKYYADSVKGRFTISRDNSKNTLYLQMNSLRAEDTAVYYCASTLQQLDAFDIWGQGTLVTVSS
VL: NFMLTQPHSVSESPGKTVTISCTRSSGSIASNYVQWYQQRPGTSPTIMIYEDNQRPSGVPDRFSGAIDSSSNSASLTISGLKTEDEADYYCQSYDSSSVVFGGGTKVTVL
notes: also called Fab E02; source: Expi293F, transient expression, purified (anti-CH1 resin, desalted into PBS)
B3: TPL0039_05_B04 IgG1 (LALA + YTE) (antibody, V domains shown)
VH: EVQLLESGGGVVQPGRSLRLSCAASGFTFSSYGMHWVRQAPGKGLEWVAVISYDGSNKYYADSVKGRFTISRDNSKNTLYLQMNSLRAEDTAVYYCARVGENEAFDIWGQGTMVTVSS
VL: NFMLTQPHSVSESPGKTVTISCTRSSGSIARNYVQWYQQRPGSAPTTVIYEDNQRPSGVPDRFSGSIDSSSNSASLTISGLKTEDEADYYCQSYDSSTVVFGGGTKLTVL
notes: also called B04(LALA + YTE); copies: 2 + 2
B4: TPL0039_05_G08 IgG1 (LALA + YTE) (antibody, V domains shown)
VH: EVQLVESGGGVVQPGRSLRLSCAASGFTFSSYGMHWVRQAPGKGLEWVAVISYDGSNKYYADSVKGRFTISRDNSKNTLYLQMNSLRAEDTAVYYCARTNYDSGDAFDIWGQGTLVTVSS
VL: NFMLTQPHSVSESPGKTVTISCTRSSGSIASNYVQWYQQRPGSSPTTVIYEDNQRPSGVPDRFSGSIDSSSNSASLTISGLKTEDEADYYCQSYDSSTVVFGGGTKLTVL
notes: also called G08(LALA + YTE); copies: 2 + 2
B5: TPL0039_05_A03 IgG1 (LALA + YTE) (antibody, V domains shown)
VH: QVQLVESGGGLAKPGRSLRLSCAVSGFTFSSYGMHWVRQAPGKGLEWVAVISYDGSNKYYADSVKGRFTISRDNSKNTLYLQMNSLRAEDTAVYYCASTLQQLDAFDIWGQGTMVTVSS
VL: NFMLTQPHSVSESPGKTITISCTRSSGSIASNYVQWYQQRPGSVPTPVIYEDDRRPSGVPDRFSGSIDSSSNSASLTISGLKTEDEADYYCQSYDSSSVVFGGGTKITVL
notes: also called A03(LALA + YTE); copies: 2 + 2
B6: TPL0039_05_E02 IgG1 (LALA + YTE) (antibody, V domains shown)
VH: QVQLLESGGGLVQPGRSLRLSCAASGFTFSSYGLHWVRQAPGKGLEWVAVISYDGSNKYYADSVKGRFTISRDNSKNTLYLQMNSLRAEDTAVYYCASTLQQLDAFDIWGQGTLVTVSS
VL: NFMLTQPHSVSESPGKTVTISCTRSSGSIASNYVQWYQQRPGTSPTIMIYEDNQRPSGVPDRFSGAIDSSSNSASLTISGLKTEDEADYYCQSYDSSSVVFGGGTKVTVL
notes: also called E02(LALA + YTE); copies: 2 + 2
B7: TPL0039_05_B12 IgG1 (LALA + YTE) (antibody, V domains shown)
VH: EVQLVESGGGVVQPGRSLRLSCAASGFTFSSYGMHWVRQAPGKGLEWVAVISYDGSNKYYADSVKGRFTISRDNSKNTLYLQMNSLRAEDTAVYYCAGWTEGDAFDIWGQGTLVTVSS
VL: NFMLTQPHSVSESPGKTVTISCTRSSGSIASNYVQWYQQRPGSAPSTVIYEDNRRPSGVPDRFSGSIDSASNSASLTISGLKTEDEADYYCQSYDSSSVVFGGGTKITVL
notes: also called B12(LALA + YTE); copies: 2 + 2
B8: E02(Fab) (Fab, V domains shown)
VH: QVQLLESGGGLVQPGRSLRLSCAASGFTFSSYGLHWVRQAPGKGLEWVAVISYDGSNKYYADSVKGRFTISRDNSKNTLYLQMNSLRAEDTAVYYCASTLQQLDAFDIWGQGTLVTVSS
VL: NFMLTQPHSVSESPGKTVTISCTRSSGSIASNYVQWYQQRPGTSPTIMIYEDNQRPSGVPDRFSGAIDSSSNSASLTISGLKTEDEADYYCQSYDSSSVVFGGGTKVTVL
notes: also called TPL0039_05_E02
B9: E02(LALA + YTE) human IgG1 (antibody, V domains shown)
VH: QVQLLESGGGLVQPGRSLRLSCAASGFTFSSYGLHWVRQAPGKGLEWVAVISYDGSNKYYADSVKGRFTISRDNSKNTLYLQMNSLRAEDTAVYYCASTLQQLDAFDIWGQGTLVTVSS
VL: NFMLTQPHSVSESPGKTVTISCTRSSGSIASNYVQWYQQRPGTSPTIMIYEDNQRPSGVPDRFSGAIDSSSNSASLTISGLKTEDEADYYCQSYDSSSVVFGGGTKVTVL
notes: also called TPL0039_05_E02

One experiment has as its target T1, myotoxin II from Bothrops asper (Bothrops asper, UniProt P24605).
T1 construct: also called Mt; M2; source: purified from Bothrops asper venom (CM-Sephadex C25, RP-HPLC), biotinylated
The experiment can be described thus: BLI; […]) biosensors ([…] (0, 1, 10, 100 nM; […]. Particulars: both partners purified. On the technique in general: BLI is a label-free optical method that tracks binding on a fibre tip over time.
T1 sequence (P24605 17-137): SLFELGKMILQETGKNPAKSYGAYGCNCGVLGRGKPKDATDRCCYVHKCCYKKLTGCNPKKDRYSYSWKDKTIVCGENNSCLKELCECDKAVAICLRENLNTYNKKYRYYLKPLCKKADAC
B1 gave a dissociation constant (Kd) of 0.0181 nM, a koff of 1.31e-05 s⁻¹ and a kon of 723000 M⁻¹ s⁻¹.

B2 displayed an off-rate (koff) of 0.000872 s⁻¹ and a kon of 360000 M⁻¹ s⁻¹.

Consider B3, for which the Kd came to 0.0758 nM, the koff came out at 6.53e-05 s⁻¹ and the kon came to 861000 M⁻¹ s⁻¹.

On to B4, for which the Kd was < 0.001 nM, the koff is < 1e-07 s⁻¹ and the kon is 245000 M⁻¹ s⁻¹.

As to B5, the Kd was < 0.001 nM, the koff was < 1e-07 s⁻¹ and the kon was determined as 648000 M⁻¹ s⁻¹.

On to B6, for which the koff was < 1e-07 s⁻¹ and the kon is 491000 M⁻¹ s⁻¹.

Regarding B7, the Kd was < 0.001 nM, the koff was < 1e-07 s⁻¹ and the kon stood at 685000 M⁻¹ s⁻¹.

In a further experiment the target is T2, myotoxin II from Bothrops asper (Bothrops asper, UniProt P24605).
T2 construct: also called Mt; Lys49 PLA2-like toxin
The experiment can be described thus: BLI; […]) biosensors; Fab or IgG at 0, 1, 10 and 100 nM; 600 s association, 600 s dissociation; […]; 1:1 binding model, […]. The note with it: both partners purified.
T2 sequence (P24605 17-137): as above
B8 registered a Kd of 2.4 nM.

In the case of B9, the equilibrium dissociation constant (Kd) was < 0.001 nM.

The term Kd denotes the free concentration of one partner at which half of the binding sites on the other are occupied at equilibrium, for simple one-to-one binding. A higher Kd goes with a looser complex. As a reminder, the koff is a measure of how fast the partners let go of each other. A lower koff goes with slow dissociation. One may read the kon as the rate constant with which the complex forms. Low values mean slower complex formation, high ones faster complex formation.
